Measurements from a protein production outcome set (Wang et al. 2014).

Experiment: label from the status in PepcDB records

| Sequence | protein production |
| --- | --- |
| MVSNGSIIHVNQNQFMMLVDGGKIVDYTAEPGYFKVENSASPSLFGGQFGDALKETFSRFKFGGTTPMKQEVFYVNLQEIKGIKFGTPNPLQYFDNFYNAELFLRTFGNYSIKITDPIKFFKEACPRDAENVHIDEINEQYLSEFLEALQAAISQMSMEGERISFIPSKGTVLSKHMSEILDDSWKELRGMEVLSVGIASISYDDESKELINMRNKGAMLGDPGVREGYVQGSIARGMEAAGSNQAGAGMAFMGMGMGMNAAGGFMGQASQTNMQQMQMNQAAQRAAQGAGQQQGAGAKAAGEWFCTECGHKNTGKFCAECGTPKPQGSGCPSCGAELKAGAKFCPECGTKLLEHHHHHH | not failed |
| MVSRQEGTLYSRKRDFTVCGEEFHNSFKKSKQEDQSQSTLFNERPKSESMRSITFDFELHLHTPLPSDWQTKMSLDLELNLSPSGSPSRTTTKKYESSSIHNETVSSSKIKVLTNTSKKSIIGTGLSRSPSWLAFEGGDDNDVDHKGQEMVTTVCMKCHMLVMLCTSTPVCPNCKFMHPHDHSSTKLFKPSNLLRLLC | failed |
| MVSYPVWDSAMFAYTISSHILLVTLTLGLALLITISEFIGIKYKNRYFLTLARKASTALVINFAVGTASGIFMAVELYLFWPEFMKVVGAVAMSAFYAEVFAFLLESITLMMYVYFWDNFKNRWNHWLTSIGVLVGTGGSAALITDVNAWMNTPEGSFNIPYYLKTGIITDVNPWKVFWEPSTFAEQFHMYAVEYFAGSMMLLGYFAYKYLRSSGADERLVYSAGLKILSVIAIIDIIIVGASGSNELDTLLVVEPLKYAALEQDMVPVTYGAPEHIFGIIINGHPAYYVNLPLAQSLLAYPFTFGHGYIPGLSSYPSSVWPPSFVHDTLDLMVGFGLLMGFFWLIVVIMYFMKKDPLNKRSVLKALMFFSGMAVYTMEDGWYTAEVGRVPGIILYDKPPYYVMTIGQAASTSPVVFPLGMAIIIFYIVLIPLTLYFMAKVLKVSNIEDDLRHADDDLSKVGKSTPAGMR | failed |
| MVTKLALLGAGRIGKVHAKAITTDSRAKLVAVVDAMAGAAEAIAREAQCKVSTIDEVLADKTIDAVIICTPTNTHADLIERFARAGKAIFCEKPVDLDVARAEACAKVVEETGAKVMLGFNRRFDPHFQAVHKAIEDGRIGKVEMVTITSRDPGPPPAEYIKVSGGIFRDMTIHDFDMARFLLGEEVESVFATGSVLVNPEIGALGDFDSASIILTTKSGRQAIISNSRRATYGYDQRIEVHGSEGSAAAENQRPVSIEIANADGYTRPPLHDFFMTRYTTAYAAEIAAFIDSIENNVSPSPSIKDGLIALKLADAALKSATSKTVVTIG | failed |
| MVTLSDPNRRSRRIKRITIVGCLGNLLLTIGKFFSGFVGHSGAMIADAVHSLSDLLTDFVVFIFISISGKPSDKNHDYGHGKFETLATAIIAVTLIIIGAMLCSDGLTKVYRYLRFGDELARPGLIALLMAFVSIVAKEWLFRITRCVGKEENSRSVIANAWHHRSDAYTSVATFIGIGCAFLLGRGWMILEPLSAAVVSVFIIKVGFQMAVPAFRDLLEQSLPDDIEEEIEKIICSESMVKGVRRIRTRNIGNYYAVEADILMDGGLSVALSHAATQRVEKLLRGRYGQPTHIVIHVEPFS | failed |
| MVTLTLLEPQQKTPLKQWCFENSSVIRIGRAADNHVILSDNLVSRHHLEIRQVSSGGGGSWQVVSKGTNGTFLNGVLVIQDALPNNALLQLAQGGPILQFQVQGIIPPEWQSISGSDSPLSGRGSLAEKSSPELSNNPGSLTCTHEGNSPQNLFCIHCGQPLSVIQTIRHYQVLRTLGQGGMGTTYLAWDAAGVIVGHPKLLVLKQMNADMARIAKAQELFEREAYTLKSLDHPGIPRYYDFFVEGGKKYLAMELVHGQDLEKRIYATGPVIPSLAIAWMIQTCDILDYLHRQEQPLIHRDIKPANLMVRTANNQIAVLDFGAVKEIGTTPGTRIGAEGYCAPEQERGQPLTQSDLYAIGPTIIFLLTGENPFKFYRQKGRGFRFDVSKIPTITPKLRDVIERTTEPLPRDRFQSAKELAAALAACK | failed |
| MVTQEQRRRQLAREKFLRQQQRRTSARRKARMRNAAIASVLGVILIGSVALYTTGVVLGDDDDKTNAGAEVTPSASAPSKAPDPCDKPADGKVKTQTWKKEPAMTVDKSAKYTMKLATTCGDIDLALKADAAPHTVNSFDFLAGKGYFDHTKCHRLTTEGIYVLQCGDPTAQGNGGPGYNIPDENLKDKSLKDNVYPAGTVAMANTGQPDSGGSQFFLVYQDSQLPPSYTPFGTVSKEGMTVLKKIASAGAQPADPTTGNTAPNATVVIDKATVSKS | failed |
| MVVANDLSSKILPRVLIVSRRTLRKNKYVDFVGEYHLDLIVSSGAVPVIVPRVNGIHSMLQSFEPIHGVLLCEGEDVDPSLYADDELSDLSPEDMEEIKKAHAEDMTIDREKDSIELTLARLCLERNIPFLGICRGSQILNVAAGGTLYQDIDKELGTTMTTTNHIDYDNYDGHRHEARIVEETPLHKLFEEMEIMVNSYHHQGVKRLAQRFVPMAYAPDGLIEGFYDPNRYDPKEGQFLMGLQFHPERMRLPGSDEFDYPGCALVYQEFVKAVIAFQKKQVNATQVEMKRKTTTLVKSFSQAEFLEVRDSFVLHTYRLYVLPLNIGFSDMAE | failed |
| MVVLAVLLPVVFGALLLLGLPRALGVLGAGLSFLLNLYLFLTHPGGVAHAFQAPLLPGAGVYWAFGLDGLSALFFLTIALTVFLGALVARVEGRFLGLALLMEGLLLGLFAARDLLVFYVFFEAALIPALLMLHLYGGEGRTRALYTFVLFTLVGSLPMLAAVLGARLLSGSPTFLLEDLLAHPLQEEAAFWVFLGFALAFAIKTPLFPLHAWLPPFHQENHPSGLADALGTLYKVGVFAFFRFAIPLAPEGFAQAQGLLLFLAALSALYGAWVAFAAKDFKTLLAYAGLSHMGVAALGVFSGTPEGAMGGLYLLAASGVYTGGLFLLAGRLYERTGTLEIGRYRGLAQSAPGLAALALILFLAMVGLPGLSGFPGEFLTLLGAYKASPWLAALAFLSVIASAAYALTAFQKTFWEEGGSGVKDLAGAEWGFALLSVLALLLMGVFPGYFARGLHPLAEAFAKLLGGGA | failed |
| MVWGKGLARRLYGLTGVVWSKYLDIDERGRLIVKLKGYKIDIAKLVSDKQLPGAHIRILPIIRYMMDQVYEAFMEAFRKFGYKGAFKPVYPLKSNSTPIVVDTIWRYGIKYSWGFNAGTYPEVKLISKYINEKPRLLVVDGIKDNKLLDLLSKMCDSWEIIVDIESMRDADLLSKYQDLNIGLRVKVTSKSSGLWSHSSGLDSKFGLLINTLDEMVEKHPWVPNRTVLLHVHAGSQITDKNRLEDIIRETIILYNNLVKTGFKNIRYIDFGGGLAYPYIEASNHVFSANYSLNEYAEILVKELVKSAENTPDIVFEGGRYIVAPHRITVTKIIDTRPYSTSDRGETSYPIVEEIKNTENIKELVYVSRKAREVITRLMLKFPINIESRRILEKLLTSINEAITSKAYEIIHRDNDKALEELIKTPNYVLEELVSPTRRFFASFSLFSHLPDTIIADQYFKIIPLQRLNEKPEVLGVISDLTCDSMGEYSSFITFLPNNIEYETEDLFTSLDHKLMFIPGKTLRLKGVPLHIPRKNEDYYIAFLDTGAYQDMLSMNHNLLNGYPEIIIDIINDNLKIIYENLESAENYPL | failed |
| MVWHYSNIMHKKSKAQLQDYFKDLTAIGNASSEQMEANRDGIQGETEENINPPPQNPKKRLSLPNLSSPSLAAEAENLESAGQPGSDYLSNSFGQANKANVAVAPVNSDYIAPEKLEDQPGDFFGGKRWFWLGGILVLLVGGTALTLPKALEMVNGWRQEAQLKAYEQEQHQDSEVLRLALLPPDQRRSKLEAIANQEVLSLERSRARFLLAGDLLAEFEGGPALRVLEGLEVQYPVLAPYILLMRGRGYQLSNENDQAEATWQDILDQYPDSPVVVNALENLGSLDETYWQQAIADHPGHPRTLAILHQQLESEPNALEIQRQILQNHPTDGRTAAVINSLTANRQGELTPEDWQAMGDNFWHRRIYNQAIAPYEKAPSNARNLYRLARAQQISKLDNEAKENYRQLIATYPDSEETALALRRLAELVPPREGVQYLQQLEQQFPDQGASALAARIDLLAKFDANQAQQARQALLQKYPNSDAAADYRWRQAQEFAKAGNYTEAWRWAKEIANQNPQSDVTPKAIFWIGKWAQQLGRSADSKAAFETVLAKYPQSYYAWRSAVLLGWQVGDFNSVRFLNPPVTVPDQRPLPPAGSPTFRELYRLAQDQEAIELFNAEVRARAEGEATPELTVNEGFTEALLKLTQQEYLQGINQVLNLRNPEDPEQRKQWEELRSTRDYWQTLFPFPYQQLIFEWSEKRQVNPFLVTALIRQESRFEKNIQSPVGATGLMQIMPATAEWIAPQIGLKEYSLTDPTDNVNMGTWYFDHTHKTYNNNSALAVASYNAGPGNVAKWLQEFNNADPDLFVERIPFAETKGYVESVFGNYWNYLRIYDPDVEKLMGQVGKN | failed |
| MVWPHLYFSELEAQHIMTSIISSSWFKFSVVAASITGIMMLSGCAKKEAQDLTTLNIGFQKYGLLPIVKERGELDKILKKEGITIKWVEFPAGPQLLEGLNVGSVVFGEAGEAPPIFAQAANSNLVYVANQPAAPNAEALIVQKNSSVHSVQDLKGKRIALNKGSNVHYLLLKLLEKNHLTLNDIQVVYLPPADARAAFEKGAVDAWVIWDPFFAAAEQQIGARVIATGQDLVSNHQFYLADRKFAQNHPEVLKTLVKELNQSTEWVKTHQDDAAKLLEKPTALDFNILKTSISRMGFGVTPLSNTVINEQQQVADAFYQQKLIPQPLKIQDAILKGEIK | failed |
| MVYKNILVGLDGSSQADNAFKVACGLANALSADLHPIWIVNRDRGMDSSFGVNEDFYRDQYHQVQDKLVSYVEDAKKAGLKVTGEALVGNIKLVLANEYPKEHGIDLIVLGNTGLNTVEKLVVGSHTSYVIRNSACDVLVVK | failed |
| MVYPRMGRVPLPPKGAQHYTTMCQFCNVGCGYDVYVWPAGAEGSPEPGGHGIEYKIVDEAYGRNLVKQPDFTKEHTGLSAEEGEPWISEAMVVKTIRRTWERGRGTGGWREVYVAQVPSPECPINWGNHSVRGGTQAERIWSPWNIAGERRLTKPLVRFGGRLEPVSWEYAIDLVARVVKGVIDKWGIERPGWGKEGHAVFAHRMDHGGGGGGGMIFNTVVGLFFFYGVRTAFARIHNRPFFGPENPAAGDAGPGAMNTSYHDLRLADTIILWGNNPYSTATVMFVKHVLDNLRGATKAEKQRWFNPGEPVIDSRIIIVDPRRTETVEAAEAAAGKDRVLHLQVKPGTDIVLANAIARVIYERYGDVVEEFVNHYRSAAGWGFKWDEEGFQKYVSEALQVGEETLDEVLAEAESITGVPRDKIELAAKWIAERKEGGYPKRVWLMYEKGIIWNQNYRSIYSLFDLCMIAGATRGLPGCGCQRQGGHQEGFASPAPPPPPWTDERHHIAYPDKSLYDEYYNTKYPRADFYMPTTDFRLANGEGKVLWVIDMDNYRLAPNSQRLKAVVGDRAWRVTRYVFAEAYANVGGKESEPNYDPNALEPVITTPPSSREYAEKVLQALEETGGLFVIVEDIYPTFMVEDAHVVLPAAFNNGEWPDVRMGVHERRFRIADAWLDPPGEAKPDWWILANVAKRIVELYEEEGRGGDPVAERFRKAFKPIWDAMEANARDPTVEVENEIFKTYIANADEAYARLGVHWEVQYWTPEFKKLDLNILRKLRTIGTVLPITKLDVKPDGTIEVRGVVNIMEPALNDTYREEVVVVKPDGTIVRRIEVVPSNETVRSYVPGHLKPWPAVWDKYPPYVDELIRKGYKYWVVNGRYNAIWQTGYADPNVVEIMARHPMNIVQVNPEDAAKEGLENGDIVVIYNDYGSTTAMVWVTRVVAPGTIFLIMAHPKAVGANAVTTPSVDPAAQNPDYKLTLANLRKIGRADETIIKKVTFKDIRFAVR | failed |
| MVYSTTTGRFCGLFCLRDQMPVSTNRHPYSENTMEIIVNGEARAATPMSMLELLRSLDIDPRRVAVELNHDILPKGEYESTILNDGDRIEIVHFVGGGLEHHHHHH | not failed |
| MVYVGTSGFSFEDWKGVVYPEHLKPSQFLKYYWAVLGFRIVELNFTYYTQPSWRSFVQMLRKTPPDFYFTVKTPGSVTHVLWKEGKDPKEDMENFTRQIEPLIEEQRLKMTLAQFPFSFKFSRKNVEYLEKLRESYPYELAVEFRHYSWDREETYEFLRNHGITFVVVDEPKLPGLFPYRPITTTDYAYFRFHGRNERWFEAEGEERYDYLYSEEELKTLFEDVVELSRRVKETYVFFNNCYKGQAAINALQFKKMLEERV | not failed |
